Measurements from patent US6787341B2, “Pharmacological targeting of bacterial DNA ligase for treatment and prevention of bacterial infections” (priority 2001, dated 2004).

How the values were obtained:
E. coli LigA [1] = type: biochemical; conditions: specific activity by protein titration under steady-state conditions, normalized to wild-type ligase
Experimental: (§1) FIG. 12A: Aliquots (5 μg) of wild-type (WT) E. coli ligase, N-terminal deletion mutants NΔ38 and NΔ78, and the full-length ligase proteins containing the indicated alanine mutations in domain Ia were analyzed by SDS-PAGE. A Coomassie blue-stained gel is shown. FIG. 12B: Ligase adenylation reaction mixtures (20 μl) containing 50 mM Tris-HCl (pH 7.5), 5 mM DTT, 5 mM MgCl2, 1 μM [α-^32P]NAD^+ and 8 pmol of WT ligase, NΔ38, NΔ78, or the indicated alanine mutants were incubated for 5 min at 37° C. The reaction products were resolved by SDS-PAGE and visualized by autoradiography. FIG. 12C: Nick joining reaction mixtures (20 μl) containing 50 mM Tris-HCl (pH 7.5), 10 mM (NH4)2SO4, 5 mM DTT, 5 mM MgCl2, 20 μM NAD^+, 1 pmol of ^32P-labeled nicked DNA, and increasing amounts of WT ligase or the indicated alanine mutants were incubated for 10 min at 22° C. The extents of ligation are plotted as a function of input protein.
To further probe the role of domain Ia in NAD^+ recognition and nucleotidyl transfer, single alanine substitutions were introduced at six positions in the Ia domain of E. coli LigA. The six mutated Eco ligase residues—Glu10, Tyr22, His23, Asp32, Tyr35, and Asp36—correspond to the six residues that were subjected to alanine scanning mutagenesis in AmEPV ligase (FIG. 11). […] The conserved positions are denoted by shaded boxes in FIG. 11. The Eco ligase mutants E10A, Y22A, H23A, D32A, Y35A, and D36A were produced in E. coli and purified by Ni-agarose chromatography in parallel with wild-type ligase (FIG. 12A).
To evaluate the roles of charge, hydrogen bonding potential, and steric constraints in the functions of the domain Ia residues implicated in the step 1 reaction with NAD^+, the effects of conservative substitutions were tested. Tyr22 and Tyr35 were replaced by Phe and Ser, His23 was changed to Tyr, and Asp32 and Asp36 were mutated to Glu and Asn. The recombinant mutant ligases were purified from soluble bacterial extracts by Ni-agarose chromatography (FIG. 15A). The specific activity of each mutant was determined under steady-state conditions by protein titration and normalized to the specific activity of wild-type ligase.

E. coli LigA [2] = type: biochemical; conditions: for rate of ligase adenylation (kinetic pattern): 1 μM [32P-AMP]NAD+, 15-120 s; for ligase adenylation (ligase-AMP formation) with NAD+: qualitative
Experimental: as §1
FIG. 15A: Aliquots (5 μg) of wild-type (WT) E. coli ligase and proteins containing the indicated mutations in domain Ia were analyzed by SDS-PAGE. The Coomassie blue-stained gel is shown. The positions and sizes (in kDa) of marker proteins are indicated on the left. FIG. 15B: Ligase adenylation reaction mixtures (20 μl) containing 50 mM Tris-HCl (pH 7.5), 5 mM DTT, 5 mM MgCl2, 1 μM [α-^32P]NAD^+ and 8 pmol of WT ligase or the indicated mutants were incubated for 5 min at 37° C. The reaction products were resolved by SDS-PAGE and visualized by autoradiography.
Reaction mixtures containing (per 20 μl) 50 mM Tris-HCl (pH 7.5), 5 mM DTT, 5 mM MgCl2, 1 μM [^32P-AMP]NAD^+ and 8 pmol of ligase were incubated at 22° C. Aliquots (20 μl) were withdrawn at 15, 30, 60 and 120 s and then quenched immediately with SDS. The products were analyzed by SDS-PAGE. Formation of the ligase-[^32P]AMP adduct is plotted as a function of time.
The first step in DNA ligation involves formation of a covalent enzyme-adenylate intermediate.

Molecule | Nick Joining Activity (% of WT) (E. coli LigA [1]) | rate of ligase adenylation (kinetic pattern) (E. coli LigA [2]) | ligase adenylation (ligase-AMP formation) with NAD+ (E. coli LigA [2])
Y22F: E. coli LigA with Tyr22 replaced by Phe (protein, UniProt P15042 1-671, looked up, variant Y22F) DNA ligase: MESIEQQLTELRTTLRHHEYLFHVMDAPEIPDAEYDRLMRELRELETKHPELITPDSPTQRVGAAPLAAFSQIRHEVPMLSLDNVFDEESFLAFNKRVQDRLKNNEKVTWCCELKLDGLAVSILYENGVLVSAATRGDGTTGEDITSNVRTIRAIPLKLHGENIPARLEVRGEVFLPQAGFEKINEDARRTGGKVFANPRNAAAGSLRQLDPRITAKRPLTFFCYGVGVLEGGELPDTHLGRLLQFKKWGLPVSDRVTLCESAEEVLAFYHKVEEDRPTLGFDIDGVVIKVNSLAQQEQLGFVARAPRWAVAFKFPAQEQMTFVRDVEFQVGRTGAITPVARLEPVHVAGVLVSNATLHNADEIERLGLRIGDKVVIRRAGDVIPQVVNVVLSERPEDTREVVFPTHCPVCGSDVERVEGEAVARCTGGLICGAQRKESLKHFVSRRAMDVDGMGDKIIDQLVEKEYVHTPADLFKLTAGKLTGLERMGPKSAQNVVNALEKAKETTFARFLYALGIREVGEATAAGLAAYFGTLEALEAASIEELQKVPDVGIVVASHVHNFFAEESNRNVISELLAEGVHWPAPIVINAEEIDSPFAGKTVVLTGSLSQMSRDDAKARLVELGAKVAGSVSKKTDLVIAGEAAGSKLAKAQELGIEVIDEAEMLRLLGS | 9 % of WT | reacted slowly | weakly active
Y35S: E. coli LigA with Tyr35 replaced by Ser (protein, UniProt P15042 1-671, looked up, variant Y35S) DNA ligase: MESIEQQLTELRTTLRHHEYLYHVMDAPEIPDAESDRLMRELRELETKHPELITPDSPTQRVGAAPLAAFSQIRHEVPMLSLDNVFDEESFLAFNKRVQDRLKNNEKVTWCCELKLDGLAVSILYENGVLVSAATRGDGTTGEDITSNVRTIRAIPLKLHGENIPARLEVRGEVFLPQAGFEKINEDARRTGGKVFANPRNAAAGSLRQLDPRITAKRPLTFFCYGVGVLEGGELPDTHLGRLLQFKKWGLPVSDRVTLCESAEEVLAFYHKVEEDRPTLGFDIDGVVIKVNSLAQQEQLGFVARAPRWAVAFKFPAQEQMTFVRDVEFQVGRTGAITPVARLEPVHVAGVLVSNATLHNADEIERLGLRIGDKVVIRRAGDVIPQVVNVVLSERPEDTREVVFPTHCPVCGSDVERVEGEAVARCTGGLICGAQRKESLKHFVSRRAMDVDGMGDKIIDQLVEKEYVHTPADLFKLTAGKLTGLERMGPKSAQNVVNALEKAKETTFARFLYALGIREVGEATAAGLAAYFGTLEALEAASIEELQKVPDVGIVVASHVHNFFAEESNRNVISELLAEGVHWPAPIVINAEEIDSPFAGKTVVLTGSLSQMSRDDAKARLVELGAKVAGSVSKKTDLVIAGEAAGSKLAKAQELGIEVIDEAEMLRLLGS | <0.1 % of WT | – | apparently unreactive
Y22S: E. coli LigA with Tyr22 replaced by Ser (protein, UniProt P15042 1-671, looked up, variant Y22S) DNA ligase: MESIEQQLTELRTTLRHHEYLSHVMDAPEIPDAEYDRLMRELRELETKHPELITPDSPTQRVGAAPLAAFSQIRHEVPMLSLDNVFDEESFLAFNKRVQDRLKNNEKVTWCCELKLDGLAVSILYENGVLVSAATRGDGTTGEDITSNVRTIRAIPLKLHGENIPARLEVRGEVFLPQAGFEKINEDARRTGGKVFANPRNAAAGSLRQLDPRITAKRPLTFFCYGVGVLEGGELPDTHLGRLLQFKKWGLPVSDRVTLCESAEEVLAFYHKVEEDRPTLGFDIDGVVIKVNSLAQQEQLGFVARAPRWAVAFKFPAQEQMTFVRDVEFQVGRTGAITPVARLEPVHVAGVLVSNATLHNADEIERLGLRIGDKVVIRRAGDVIPQVVNVVLSERPEDTREVVFPTHCPVCGSDVERVEGEAVARCTGGLICGAQRKESLKHFVSRRAMDVDGMGDKIIDQLVEKEYVHTPADLFKLTAGKLTGLERMGPKSAQNVVNALEKAKETTFARFLYALGIREVGEATAAGLAAYFGTLEALEAASIEELQKVPDVGIVVASHVHNFFAEESNRNVISELLAEGVHWPAPIVINAEEIDSPFAGKTVVLTGSLSQMSRDDAKARLVELGAKVAGSVSKKTDLVIAGEAAGSKLAKAQELGIEVIDEAEMLRLLGS | 0.2 % of WT | – | virtually inert
H23Y: E. coli LigA with His23 changed to Tyr (protein, UniProt P15042 1-671, looked up, variant H23Y) DNA ligase: MESIEQQLTELRTTLRHHEYLYYVMDAPEIPDAEYDRLMRELRELETKHPELITPDSPTQRVGAAPLAAFSQIRHEVPMLSLDNVFDEESFLAFNKRVQDRLKNNEKVTWCCELKLDGLAVSILYENGVLVSAATRGDGTTGEDITSNVRTIRAIPLKLHGENIPARLEVRGEVFLPQAGFEKINEDARRTGGKVFANPRNAAAGSLRQLDPRITAKRPLTFFCYGVGVLEGGELPDTHLGRLLQFKKWGLPVSDRVTLCESAEEVLAFYHKVEEDRPTLGFDIDGVVIKVNSLAQQEQLGFVARAPRWAVAFKFPAQEQMTFVRDVEFQVGRTGAITPVARLEPVHVAGVLVSNATLHNADEIERLGLRIGDKVVIRRAGDVIPQVVNVVLSERPEDTREVVFPTHCPVCGSDVERVEGEAVARCTGGLICGAQRKESLKHFVSRRAMDVDGMGDKIIDQLVEKEYVHTPADLFKLTAGKLTGLERMGPKSAQNVVNALEKAKETTFARFLYALGIREVGEATAAGLAAYFGTLEALEAASIEELQKVPDVGIVVASHVHNFFAEESNRNVISELLAEGVHWPAPIVINAEEIDSPFAGKTVVLTGSLSQMSRDDAKARLVELGAKVAGSVSKKTDLVIAGEAAGSKLAKAQELGIEVIDEAEMLRLLGS | 88 % of WT | – | restored the yield of ligase-AMP adduct to the wild-type level
Y35F: E. coli LigA with Tyr35 replaced by Phe (protein, UniProt P15042 1-671, looked up, variant Y35F) DNA ligase: MESIEQQLTELRTTLRHHEYLYHVMDAPEIPDAEFDRLMRELRELETKHPELITPDSPTQRVGAAPLAAFSQIRHEVPMLSLDNVFDEESFLAFNKRVQDRLKNNEKVTWCCELKLDGLAVSILYENGVLVSAATRGDGTTGEDITSNVRTIRAIPLKLHGENIPARLEVRGEVFLPQAGFEKINEDARRTGGKVFANPRNAAAGSLRQLDPRITAKRPLTFFCYGVGVLEGGELPDTHLGRLLQFKKWGLPVSDRVTLCESAEEVLAFYHKVEEDRPTLGFDIDGVVIKVNSLAQQEQLGFVARAPRWAVAFKFPAQEQMTFVRDVEFQVGRTGAITPVARLEPVHVAGVLVSNATLHNADEIERLGLRIGDKVVIRRAGDVIPQVVNVVLSERPEDTREVVFPTHCPVCGSDVERVEGEAVARCTGGLICGAQRKESLKHFVSRRAMDVDGMGDKIIDQLVEKEYVHTPADLFKLTAGKLTGLERMGPKSAQNVVNALEKAKETTFARFLYALGIREVGEATAAGLAAYFGTLEALEAASIEELQKVPDVGIVVASHVHNFFAEESNRNVISELLAEGVHWPAPIVINAEEIDSPFAGKTVVLTGSLSQMSRDDAKARLVELGAKVAGSVSKKTDLVIAGEAAGSKLAKAQELGIEVIDEAEMLRLLGS | 23 % of WT | faster than Y35A | restored adenylation activity
